Consider 3 molecules from patent US20240002795A1 (published 2024).

What all share (experiment): activation reporter or marker
The target of experiment [1] is T1, RET M918T peptide on HLA-DPA1*01:03 / HLA-DPB1*04:01 (human).
T1 peptide: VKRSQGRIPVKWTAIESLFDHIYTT

Experiment [2] concerns the target T2, RET wild type peptide on HLA-DPA1*01:03 / HLA-DPB1*04:02 (human).
T2 peptide: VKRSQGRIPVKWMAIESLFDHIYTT

In experiment [3] the target is T3, RET wild type peptide on HLA-DPA1*01:03 / HLA-DPB1*04:01 (human).
T3 peptide: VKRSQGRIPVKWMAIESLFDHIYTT

In experiment [4] the target is T4, RET M918T peptide on HLA-DPA1*01:03 / HLA-DPB1*04:02 (human).
T4 peptide: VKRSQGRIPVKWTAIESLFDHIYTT

B1: TCR-ID-2 (TCR, V domains shown)
Valpha: AQKITQTQPGMFVQEKEAVTLDCTYDTSDQSYGLFWYKQPSSGEMIFLIYQGSYDEQNATEGRYSLNFQKARKSANLVISASQLGDSAMYFCAMREGDGDDMRFGAGTRLTVKP
Vbeta: EPEVTQTPSHQVTQMGQEVILRCVPISNHLYFYWYRQILGQKVEFLVSFYNNEISEKSEIFDDQFSVERPDGSNFTLKIRSTKLEDSAMYFCASSSQIQTVMNTEAFFGQGTRLTVV
In the case of B1, the binding result in experiment [1] was “recognises”; in experiment [2] it was “no recognition”; in experiment [3], “no recognition”; in experiment [4], “recognises”.

B2: TCR-ID-3 (TCR, V domains shown)
Valpha: DQQVKQNSPSLSVQEGRISILNCDYTNSMFDYFLWYKKYPAEGPTFLISISSIKDKNEDGRFTVFLNKSAKHLSLHIVPSQPGDSAVYFCAASGHGGSQGNLIFGKGTKLSVKP
Vbeta: GAGVSQSPRYKVAKRGQDVALRCDPISGHVSLFWYQQALGQGPEFLTYFQNEAQLDKSGLPSDRFFAERPEGSVSTLKIQRTQQEDSAVYLCASSLRFLGQGSYEQYFGPGTRLTVT
Take B2: the binding result is recorded as “recognises” in experiment [1], “no recognition” in experiment [3] and “recognises” in experiment [4].

B3: TCR-ID-1 (TCR, V domains shown)
Valpha: GNSVTQMEGPVTLSEEAFLTINCTYTATGYPSLFWYVQYPGEGLQLLLKATKADDKGSNKGFEATYRKETTSFHLEKGSVQVSDSAVYFCALSENAGNQFYFGTGTSLTVIP
Vbeta: NAGVTQTPKFQVLKTGQSMTLQCAQDMNHEYMSWYRQDPGMGLRLIHYSVGAGITDQGEVPNGYNVSRSTTEDFPLRLLSAAPSQTSVYFCASSRGNTQYFGPGTRLTVL
On to B3, for which the binding result is “recognises” in experiment [1], “no recognition” in experiment [2], “no recognition” in experiment [3] and “recognises” in experiment [4].
